Data reported in paper PMC9177699, “Dynamic interplay between the periplasmic chaperone SurA and the BAM complex in outer membrane protein folding” (Communications Biology, 2022).

Columns and labels:
[1] = biological target: BAM complex (BamABCDE) (E. coli, UniProt P0A940 21-810; P77774 20-392; P0A903 25-344; P0AC02 20-245; P0A937 20-113); assay: MST; 400 nM Alexa Fluor 488-labelled SurA variant, BAM complex titrated 25 µM-1 nM in proteoliposomes of E. coli polar lipid extract, 150 mM NaCl, 20 mM Tris-HCl, pH 8.0, 25 °C; BAM concentration taken as 50 % of the total for fitting; 1:1 quadratic binding model; settings: both partners purified
[2] = biological target: T1, β-barrel assembly machinery (BAM) complex, BamABCDE (E. coli, UniProt P0A940 21-810; P77774 20-392; P0A903 25-344; P0AC02 20-245; P0A937 20-113); assay: cell-based or functional assay
[3] = biological target: T1, β-barrel assembly machinery (BAM) …; assay: MST; BAM reconstituted in proteoliposomes of E. coli polar lipid extract titrated (25 µM–1 nM) against 400 nM Alexa Fluor 488-labelled SurA variant; TBS pH 8.0, 25 °C; 1:1 quadratic binding model; settings: both partners purified
[4] = biological target: T1, β-barrel assembly machinery (BAM) …; assay: MST; BAM in DDM micelles titrated (1.6 nM–52 μM) against 400 nM Alexa Fluor 488-labelled Cys-SurA variant; 0.02% (v/v) DDM, 150 mM NaCl, 20 mM Tris–HCl, pH 8, 25 °C; 1:1 quadratic binding model; settings: both partners purified

B1: Alexa Fluor 488-labelled Cys-SurA-∆P1 (domain or fragment)
chain: GCAPQVVDKVAAVVNNGVVLESDVDGLMQSVKLNAAQARQQLPDDATLRHQIMERLIMDQIILQMGQKMGVKISDEQLDQAIANIAKQNNMTLDQMRSRLAYDGLNYNTYRNQIRKEMIISEVRNNEVRRRITILPQEVESLAQQVGNQNDASSVTEVHARHILLKPSPIMTDEQARVKLEQIAADIKSGKTTFAAAAKEFSQDPGSANQGGDLGWATPDIFDPAFRDALTRLNKGQMSAPVHSSFGWHLIELLDTRNVDKTDAAQKDRAYRMLMNRKFSEEAASWMQEQRASAYVKILSN
modifications: Alexa Fluor 488 (C5 maleimide) on the added N-terminal cysteine
notes: glycine left after TEV cleavage (ENLYFQG) and the cysteine added immediately following the TEV cleavage site; the order G-C is worked out from the text; gene numbering including the signal peptide; not shown: His6, N-terminal, cleaved
Which Kd [1] does the source give for B1 here?
The Kd was 600 nM.

B2: SurA-∆P2 (SurA 21-428 without residues 281-389, His-tag cleaved) (domain or fragment)
chain: APQVVDKVAAVVNNGVVLESDVDGLMQSVKLNAAQARQQLPDDATLRHQIMERLIMDQIILQMGQKMGVKISDEQLDQAIANIAKQNNMTLDQMRSRLAYDGLNYNTYRNQIRKEMIISEVRNNEVRRRITILPQEVESLAQQVGNQNDASTELNLSHILIPLPENPTSDQVNEAESQARAIVDQARNGADFGKLAIAHSADQQALNGGQMGWGRIQELPGIFAQALSTAKKGDIVGPIRSGVGFHILKVNDLRGESKNIDAAQKDRAYRMLMNRKFSEEAASWMQEQRASAYVKILSN
Which “rate of BAM-catalysed folding of tOmpA into proteoliposomes (cold SDS–PAGE), with SurA-∆P2 against SurA-WT” value [2] does the source give for B2 here?
The value was roughly 3 fold.

B3: Alexa Fluor 488-labelled Cys-SurA-∆P1 (domain or fragment)
chain: CAPQVVDKVAAVVNNGVVLESDVDGLMQSVKLNAAQARQQLPDDATLRHQIMERLIMDQIILQMGQKMGVKISDEQLDQAIANIAKQNNMTLDQMRSRLAYDGLNYNTYRNQIRKEMIISEVRNNEVRRRITILPQEVESLAQQVGNQNDASSVTEVHARHILLKPSPIMTDEQARVKLEQIAADIKSGKTTFAAAAKEFSQDPGSANQGGDLGWATPDIFDPAFRDALTRLNKGQMSAPVHSSFGWHLIELLDTRNVDKTDAAQKDRAYRMLMNRKFSEEAASWMQEQRASAYVKILSN
modifications: Alexa Fluor 488 on the added N-terminal cysteine (maleimide)
notes: cysteine residue added immediately following the TEV cleavage site; numbers are the gene numbering (including the signal peptide); A G of the TEV site probably precedes the added cysteine after cleavage (surmised); also called SurA-ΔP1; not shown: His6, N-terminal, cleaved
Does B3 bind [3]?
Result: binds

B4: Alexa Fluor 488-labelled Cys-SurA-core (domain or fragment)
chain: GCAPQVVDKVAAVVNNGVVLESDVDGLMQSVKLNAAQARQQLPDDATLRHQIMERLIMDQIILQMGQKMGVKISDEQLDQAIANIAKQNNMTLDQMRSRLAYDGLNYNTYRNQIRKEMIISEVRNNEVRRRITILPQEVESLAQQVGNQNDASDAAQKDRAYRMLMNRKFSEEAASWMQEQRASAYVKILSN
modifications: Alexa Fluor 488 (C5 maleimide) on the added N-terminal cysteine
notes: as for B1
B4 was tested. Which Kd [1] did it give?
The Kd was 700 nM.

B5: SurA-WT (wild-type SurA, residues 21-428, His-tag cleaved) (natural protein)
chain: APQVVDKVAAVVNNGVVLESDVDGLMQSVKLNAAQARQQLPDDATLRHQIMERLIMDQIILQMGQKMGVKISDEQLDQAIANIAKQNNMTLDQMRSRLAYDGLNYNTYRNQIRKEMIISEVRNNEVRRRITILPQEVESLAQQVGNQNDASTELNLSHILIPLPENPTSDQVNEAESQARAIVDQARNGADFGKLAIAHSADQQALNGGQMGWGRIQELPGIFAQALSTAKKGDIVGPIRSGVGFHILKVNDLRGESKNISVTEVHARHILLKPSPIMTDEQARVKLEQIAADIKSGKTTFAAAAKEFSQDPGSANQGGDLGWATPDIFDPAFRDALTRLNKGQMSAPVHSSFGWHLIELLDTRNVDKTDAAQKDRAYRMLMNRKFSEEAASWMQEQRASAYVKILSN
With B5 as the binder, how does the “rate of BAM-mediated folding of tOmpA into proteoliposomes (cold SDS–PAGE), without SurA-WT against with 10 μM SurA-WT” value [2] read?
Its value is roughly 6 fold.

B6: Alexa Fluor 488-labelled Cys-SurA-∆P2 (domain or fragment)
chain: GCAPQVVDKVAAVVNNGVVLESDVDGLMQSVKLNAAQARQQLPDDATLRHQIMERLIMDQIILQMGQKMGVKISDEQLDQAIANIAKQNNMTLDQMRSRLAYDGLNYNTYRNQIRKEMIISEVRNNEVRRRITILPQEVESLAQQVGNQNDASTELNLSHILIPLPENPTSDQVNEAESQARAIVDQARNGADFGKLAIAHSADQQALNGGQMGWGRIQELPGIFAQALSTAKKGDIVGPIRSGVGFHILKVNDLRGESKNIDAAQKDRAYRMLMNRKFSEEAASWMQEQRASAYVKILSN
modifications: Alexa Fluor 488 (C5 maleimide) on the added N-terminal cysteine
notes: as for B1
B6 was tested. Which Kd [1] did it give?
Its Kd is 1200 nM.

B7: Alexa Fluor 488-labelled Cys-SurA-∆P2 (domain or fragment)
chain: CAPQVVDKVAAVVNNGVVLESDVDGLMQSVKLNAAQARQQLPDDATLRHQIMERLIMDQIILQMGQKMGVKISDEQLDQAIANIAKQNNMTLDQMRSRLAYDGLNYNTYRNQIRKEMIISEVRNNEVRRRITILPQEVESLAQQVGNQNDASTELNLSHILIPLPENPTSDQVNEAESQARAIVDQARNGADFGKLAIAHSADQQALNGGQMGWGRIQELPGIFAQALSTAKKGDIVGPIRSGVGFHILKVNDLRGESKNIDAAQKDRAYRMLMNRKFSEEAASWMQEQRASAYVKILSN
modifications: Alexa Fluor 488 on the added N-terminal cysteine (maleimide)
notes: cysteine residue added immediately following the TEV cleavage site; numbers are the gene numbering (including the signal peptide); A G of the TEV site probably precedes the added cysteine after cleavage (surmised); not shown: His6, N-terminal, cleaved
Does B7 bind [3]?
Result: binds

B8: Alexa Fluor 488-labelled Cys-SurA-WT (natural protein)
chain: CAPQVVDKVAAVVNNGVVLESDVDGLMQSVKLNAAQARQQLPDDATLRHQIMERLIMDQIILQMGQKMGVKISDEQLDQAIANIAKQNNMTLDQMRSRLAYDGLNYNTYRNQIRKEMIISEVRNNEVRRRITILPQEVESLAQQVGNQNDASTELNLSHILIPLPENPTSDQVNEAESQARAIVDQARNGADFGKLAIAHSADQQALNGGQMGWGRIQELPGIFAQALSTAKKGDIVGPIRSGVGFHILKVNDLRGESKNISVTEVHARHILLKPSPIMTDEQARVKLEQIAADIKSGKTTFAAAAKEFSQDPGSANQGGDLGWATPDIFDPAFRDALTRLNKGQMSAPVHSSFGWHLIELLDTRNVDKTDAAQKDRAYRMLMNRKFSEEAASWMQEQRASAYVKILSN
modifications: Alexa Fluor 488 on the added N-terminal cysteine (maleimide)
notes: cysteine residue added immediately following the TEV cleavage site; numbers are the gene numbering (including the signal peptide); A G of the TEV site probably precedes the added cysteine after cleavage (surmised); also called Alexa Fluor 488-labelled SurA; not shown: His6, N-terminal, cleaved
B8 was tested. Which Kd [4] did it give?
The Kd was 2600 ± 200 nM.

B9: Alexa Fluor 488-labelled Cys-SurA-core (domain or fragment)
chain: CAPQVVDKVAAVVNNGVVLESDVDGLMQSVKLNAAQARQQLPDDATLRHQIMERLIMDQIILQMGQKMGVKISDEQLDQAIANIAKQNNMTLDQMRSRLAYDGLNYNTYRNQIRKEMIISEVRNNEVRRRITILPQEVESLAQQVGNQNDASDAAQKDRAYRMLMNRKFSEEAASWMQEQRASAYVKILSN
modifications: Alexa Fluor 488 on the added N-terminal cysteine (maleimide)
notes: as for B7
How did the Kd [4] turn out when B9 was run?
The Kd was 1300 ± 300 nM.

B10: Alexa Fluor 488-labelled Cys-SurA-WT (natural protein)
chain: GCAPQVVDKVAAVVNNGVVLESDVDGLMQSVKLNAAQARQQLPDDATLRHQIMERLIMDQIILQMGQKMGVKISDEQLDQAIANIAKQNNMTLDQMRSRLAYDGLNYNTYRNQIRKEMIISEVRNNEVRRRITILPQEVESLAQQVGNQNDASTELNLSHILIPLPENPTSDQVNEAESQARAIVDQARNGADFGKLAIAHSADQQALNGGQMGWGRIQELPGIFAQALSTAKKGDIVGPIRSGVGFHILKVNDLRGESKNISVTEVHARHILLKPSPIMTDEQARVKLEQIAADIKSGKTTFAAAAKEFSQDPGSANQGGDLGWATPDIFDPAFRDALTRLNKGQMSAPVHSSFGWHLIELLDTRNVDKTDAAQKDRAYRMLMNRKFSEEAASWMQEQRASAYVKILSN
modifications: Alexa Fluor 488 (C5 maleimide) on the added N-terminal cysteine
notes: as for B1
B10 was tested. Which Kd [1] did it give?
The Kd was 600 nM.
